{"source": "IntAct's records for PubMed 17558407", "parents": {"B1": {"name": "Nephrocystin-4 (Homo sapiens), O75161 (parent)", "chain": "MNDWHRIFTQNVLVPPHPQRARQPWKESTAFQCVLKWLDGPVIRQGVLEVLSEVECHLRVSFFDVTYRHFFGRTWKTTVKPTKRPPSRIVFNEPLYFHTSLNHPHIVAVVEVVAEGKKRDGSLQTLSCGFGILRIFSNQPDSPISASQDKRLRLYHGTPRALLHPLLQDPAEQNRHMTLIENCSLQYTLKPHPALEPAFHLLPENLLVSGLQQIPGLLPAHGESGDALRKPRLQKPITGHLDDLFFTLYPSLEKFEEELLELHVQDHFQEGCGPLDGGALEILERRLRVGVHNGLGFVQRPQVVVLVPEMDVALTRSASFSRKVVSSSKTSSGSQALVLRSRLRLPEMVGHPAFAVIFQLEYVFSSPAGVDGNAASVTSLSNLACMHMVRWAVWNPLLEADSGRVTLPLQGGIQPNPSHCLVYKVPSASMSSEEVKQVESGTLRFQFSLGSEEHLDAPTEPVSGPKVERRPSRKPPTSPSSPPAPVPRVLAAPQNSPVGPGLSISQLAASPRSPTQHCLARPTSQLPHGSQASPAQAQEFPLEAGISHLEADLSQTSLVLETSIAEQLQELPFTPLHAPIVVGTQTRSSAGQPSRASMVLLQSSGFPEILDANKQPAEAVSATEPVTFNPQKEESDCLQSNEMVLQFLAFSRVAQDCRGTSWPKTVYFTFQFYRFPPATTPRLQLVQLDEAGQPSSGALTHILVPVSRDGTFDAGSPGFQLRYMVGPGFLKPGERRCFARYLAVQTLQIDVWDGDSLLLIGSAAVQMKHLLRQGRPAVQASHELEVVATEYEQDNMVVSGDMLGFGRVKPIGVHSVVKGRLHLTLANVGHPCEQKVRGCSTLPPSRSRVISNDGASRFSGGSLLTTGSSRRKHVVQAQKLADVDSELAAMLLTHARQGKGPQDVSRESDATRRRKLERMRSVRLQEAGGDLGRRGTSVLAQQSVRTQHLRDLQVIAAYRERTKAESIASLLSLAITTEHTLHATLGVAEFFEFVLKNPHNTQHTVTVEIDNPELSVIVDSQEWRDFKGAAGLHTPVEEDMFHLRGSLAPQLYLRPHETAHVPFKFQSFSAGQLAMVQASPGLSNEKGMDAVSPWKSSAVPTKHAKVLFRASGGKPIAVLCLTVELQPHVVDQVFRFYHPELSFLKKAIRLPPWHTFPGAPVGMLGEDPPVHVRCSDPNVICETQNVGPGEPRDIFLKVASGPSPEIKDFFVIIYSDRWLATPTQTWQVYLHSLQRVDVSCVAGQLTRLSLVLRGTQTVRKVRAFTSHPQELKTDPKGVFVLPPRGVQDLHVGVRPLRAGSRFVHLNLVDVDCHQLVASWLVCLCCRQPLISKAFEIMLAAGEGKGVNKRITYTNPYPSRRTFHLHSDHPELLRFREDSFQVGGGETYTIGLQFAPSQRVGEEEILIYINDHEDKNEEAFCVKVIYQ"}, "B2": {"name": "Protein fantom (Homo sapiens), Q68CZ1-2 (parent)", "chain": "MSGPTDETAGDLPVKDTGLNLFGMGGLQETSTTRTMKSRQAVSRVSREELEDRFLRLHDENILLKQHARKQEDKIKRMATKLIRLVNDKKRYERVGGGPKRLGRDVEMEEMIEQLQEKVHELEKQNETLKNRLISAKQQLQTQGYRQTPYNNVQSRINTGRRKANENAGLQECPRKGIKFQDADVAETPHPMFTKYGNSLLEEARGEIRNLENVIQSQRGQIEELEHLAEILKTQLRRKENEIELSLLQLREQQATDQRSNIRDNVEMIKLHKQLVEKSNALSAMEGKFIQLQEKQRTLRISHDALMANGDELNMQLKEQRLKCCSLEKQLHSMKFSERRIEELQDRINDLEKERELLKENYDKLYDSAFSAAHEEQWKLKEQQLKVQIAQLETALKSDLTDKTEILDRLKTERDQNEKLVQENRELQLQYLEQKQQLDELKKRIKLYNQENDINADELSEALLLIKAQKEQKNGDLSFLVKVDSEINKDLERSMRELQATHAETVQELEKTRNMLIMQHKINKDYQMEVEAVTRKMENLQQDYELKVEQYVHLLDIRAARIHKLEAQLKDIAYGTKQYKFKPEIMPDDSVDEFDETIHLERGENLFEIHINKVTFSSEVLQASGDKEPVTFCTYAFYDFELQTTPVVRGLHPEYNFTSQYLVHVNDLFLQYIQKNTITLEVHQAYSTEYETIAACQLKFHEILEKSGRIFCTASLIGTKGDIPNFGTVEYWFRLRVPMDQAIRLYRERAKALGYITSNFKGPEHMQSLSQQAPKTAQLSSTDSTDGNLNELHITIRCCNHLQSRASHLQPHPYVVYKFFDFADHDTAIIPSSNDPQFDDHMYFPVPMNMDLDRYLKSESLSFYVFDDSDTQENIYIGKVNVPLISLAHDRCISGIFELTDHQKHPAGTIHVILKWKFAYLPPSGSITTEDLGNFIRSEEPEVVQRLPPASSVSTLVLAPRPKPRQRLTPVDKKVSFVDIMPHQSDVSQEGSVDEVKENTEKMQQGKDDVSLLSEGQLAEQSLASSEDETEITEDLEPEVEEDMSASDSDDCIIPGPISKNIKQPSEKIRIEIIALSLNDSQVTMDDTIQRLFVECRFYSLPAEETPVSLPKPKSGQWVYYNYSNVIYVDKENNKAKRDILKAILQKQEMPNRSLRFTVVSDPPEDEQDLECEDIGVAHVDLADMFQEGRDLIEQNIDVFDARADGEGIGKLRVTVEALHALQSVYKQYRDDLEA", "partner": "B1 chain"}}, "data": [{"variants_of": "B1", "conditions": "with RPGRIP1L", "values": [{"variant": "G754R", "effect of a mutation on the interaction": "decreasing interaction"}]}, {"variants_of": "B2", "conditions": "with nphp4_human NPHP4, O75161", "values": [{"variant": "T615P", "effect of a mutation on the interaction": "decreasing interaction"}]}]}
